The target of this assay is TcdB2 toxin (recombinant, full length) (Clostridium difficile). As to the kind of experiment: SPR, TcdB2 immobilized, PepB2 injected; multivalent interaction, no affinity or rate constant determined. A general note: Surface plasmon resonance follows binding to a sensor surface in real time, without labels.

For “PepB2 (Peptide 5; amino acids 1769-1787 of TcdB2)”, the molecules of PepB2 calculated to bind a single molecule of TcdB (molecules of PepB2 per molecule of TcdB) is 250.
